T1: cys-less human sGC α1 subunit with L275C (α1^CL L275C), C-terminal GFP-strep (human, UniProt Q02108 64-690, C176A | C239A | C669S | C455Y | C460G | L275C)
T1 construct: soluble guanylate cyclase α1 subunit, human; the cys-rich N-terminal 63 amino acids removed; cys-less background plus L275C; also called α1 L275C; source: HEK293F, transfected (BacMam vector), purified with β1 on Streptactin Beads 4FF; not shown: GFP, C-terminal, kept; strep, C-terminal, kept
T1 sequence (looked up): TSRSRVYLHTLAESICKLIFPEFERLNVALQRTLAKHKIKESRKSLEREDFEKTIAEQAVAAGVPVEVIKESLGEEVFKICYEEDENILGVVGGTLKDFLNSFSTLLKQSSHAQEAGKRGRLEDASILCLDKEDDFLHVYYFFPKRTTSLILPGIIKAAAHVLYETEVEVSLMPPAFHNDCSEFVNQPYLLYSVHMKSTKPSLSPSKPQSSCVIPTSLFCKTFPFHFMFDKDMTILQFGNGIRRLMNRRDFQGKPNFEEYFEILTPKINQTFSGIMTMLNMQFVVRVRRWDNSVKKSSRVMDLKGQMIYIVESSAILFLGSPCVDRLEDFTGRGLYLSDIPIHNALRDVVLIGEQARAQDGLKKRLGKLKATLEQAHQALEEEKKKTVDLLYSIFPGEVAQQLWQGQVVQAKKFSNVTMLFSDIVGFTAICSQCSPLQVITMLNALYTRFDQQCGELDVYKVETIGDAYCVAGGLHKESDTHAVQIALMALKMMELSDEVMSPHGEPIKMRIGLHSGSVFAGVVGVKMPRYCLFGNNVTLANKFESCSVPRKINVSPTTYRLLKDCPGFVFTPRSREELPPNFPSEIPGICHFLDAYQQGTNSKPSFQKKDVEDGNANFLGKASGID

T2: cys-less human sGC α1 subunit with L425C (α1^CL L425C), C-terminal GFP-strep (human, UniProt Q02108 64-690, C176A | C239A | C669S | C455Y | C460G | L425C)
T2 construct: soluble guanylate cyclase α1 subunit, human; the cys-rich N-terminal 63 amino acids removed; cys-less background plus L425C; also called α1 L425C; source: HEK293F, transfected (BacMam vector), purified with β1 on Streptactin Beads 4FF; not shown: GFP, C-terminal, kept; strep, C-terminal, kept
T2 sequence (looked up): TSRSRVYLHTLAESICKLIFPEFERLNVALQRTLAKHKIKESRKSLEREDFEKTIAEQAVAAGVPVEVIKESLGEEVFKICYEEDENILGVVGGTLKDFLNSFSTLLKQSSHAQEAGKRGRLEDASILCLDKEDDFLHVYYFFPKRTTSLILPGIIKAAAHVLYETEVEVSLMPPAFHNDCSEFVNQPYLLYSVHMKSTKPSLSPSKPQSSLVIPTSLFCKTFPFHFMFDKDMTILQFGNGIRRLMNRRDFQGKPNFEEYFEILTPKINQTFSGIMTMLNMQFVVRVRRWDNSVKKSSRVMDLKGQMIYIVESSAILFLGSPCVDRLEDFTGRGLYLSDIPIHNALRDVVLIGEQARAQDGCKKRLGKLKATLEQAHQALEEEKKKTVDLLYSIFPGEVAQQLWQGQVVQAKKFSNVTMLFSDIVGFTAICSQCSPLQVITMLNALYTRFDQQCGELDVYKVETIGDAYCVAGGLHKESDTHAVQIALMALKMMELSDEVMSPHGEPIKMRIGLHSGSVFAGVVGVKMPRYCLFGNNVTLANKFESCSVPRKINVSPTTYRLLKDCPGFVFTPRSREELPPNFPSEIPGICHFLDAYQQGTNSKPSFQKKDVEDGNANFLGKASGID


Experiments:
[1] = target: T1, cys-less human sGC α1 subunit with …; assay: cross-linking; disulfide cross-linking of Streptactin-purified cys-less sGC with 0.1 mM Cu(II)(1,10-phenanthroline)3 on ice for 30 min; SDS-PAGE non-reducing or reducing (100 mM DTT); in-gel GFP fluorescence of α1; settings: both partners purified
[2] = target: T2, cys-less human sGC α1 subunit with …; assay: as above; settings: both partners purified

binding result [1]	binding result [2]	Binder
binds	–	cys-less human sGC β1 subunit with A316C (β1^CL A316C), without tags (natural protein, UniProt Q02153 1-619, looked up, soluble guanylate cyclase β1 subunit, human; cys-less background (C292N) plus A316C; The PDB entries are of the wild-type parent; also called β1 A316C; source: HEK293F, transfected (BacMam vector), purified with α1 on Streptactin Beads 4FF) MYGFVNHALELLVIRNYGPEVWEDIKKEAQLDEEGQFLVRIIYDDSKTYDLVAAASKVLNLNAGEILQMFGKMFFVFCQESGYDTILRVLGSNVREFLQNLDALHDHLATIYPGMRAPSFRCTDAEKGKGLILHYYSEREGLQDIVIGIIKTVAQQIHGTEIDMKVIQQRNEECDHTQFLIEEKESKEEDFYEDLDRFEENGTQESRISPYTFCKAFPFHIIFDRDLVVTQCGNAIYRVLPQLQPGNCSLLSVFSLVRPHIDISFHGILSHINTVFVLRSKEGLLDVEKLENEDELTGTEISCLRLKGQMIYLPECDSILFLCSPSVMNLDDLTRRGLYLSDIPLHDATRDLVLLGEQFREEYKLTQELEILTDRLQLTLRALEDEKKKTDTLLYSVLPPSVANELRHKRPVPAKRYDNVTILFSGIVGFNAFCSKHASGEGAMKIVNLLNDLYTRFDTLTDSRKNPFVYKVETVGDKYMTVSGLPEPCIHHARSICHLALDMMEIAGQVQVDGESVQITIGIHTGEVVTGVIGQRMPRYCLFGNTVNLTSRTETTGEKGKINVSEYTYRCLMSPENSDPQFHLEHRGPVSMKGKKEPMQVWFLSRKNTGTEETKQDDD
–	binds	cys-less human sGC β1 subunit with L365C (β1^CL L365C), without tags (natural protein, UniProt Q02153 1-619, looked up, soluble guanylate cyclase β1 subunit, human; cys-less background (C292N) plus L365C; The PDB entries are of the wild-type parent; also called β1 L365C; source: HEK293F, transfected (BacMam vector), purified with α1 on Streptactin Beads 4FF) MYGFVNHALELLVIRNYGPEVWEDIKKEAQLDEEGQFLVRIIYDDSKTYDLVAAASKVLNLNAGEILQMFGKMFFVFCQESGYDTILRVLGSNVREFLQNLDALHDHLATIYPGMRAPSFRCTDAEKGKGLILHYYSEREGLQDIVIGIIKTVAQQIHGTEIDMKVIQQRNEECDHTQFLIEEKESKEEDFYEDLDRFEENGTQESRISPYTFCKAFPFHIIFDRDLVVTQCGNAIYRVLPQLQPGNCSLLSVFSLVRPHIDISFHGILSHINTVFVLRSKEGLLDVEKLENEDELTGTEISCLRLKGQMIYLPEADSILFLCSPSVMNLDDLTRRGLYLSDIPLHDATRDLVLLGEQFREEYKCTQELEILTDRLQLTLRALEDEKKKTDTLLYSVLPPSVANELRHKRPVPAKRYDNVTILFSGIVGFNAFCSKHASGEGAMKIVNLLNDLYTRFDTLTDSRKNPFVYKVETVGDKYMTVSGLPEPCIHHARSICHLALDMMEIAGQVQVDGESVQITIGIHTGEVVTGVIGQRMPRYCLFGNTVNLTSRTETTGEKGKINVSEYTYRCLMSPENSDPQFHLEHRGPVSMKGKKEPMQVWFLSRKNTGTEETKQDDD

Source: publication doi:10.1101/731679, “Structural insights into the mechanism of the human soluble guanylate cyclase” (bioRxiv, 2019)
